Experimental data: the nanobody polyreactivity screen of Harvey et al. (2022)

Assay: yeast display, Sf9 membrane polyspecificity reagent, FACS + sequencing; frameworks hold sequencing errors
Summary of the method: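 A nanobody's polyreactivity label depends on the gate it was sorted from. Yeast display cells were stained with 10% biotinylated, detergent-solubilized Sf9 membrane reagent for 1 hour at 4 °C, enriched on streptavidin microbeads and sorted by FACS. The low and high (top ~1%) gates were set on anti-HA fluorescence for expression and streptavidin fluorescence for reagent binding.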

**Q.** For “QVQLVESGGGLVQAGGSLRLCCAASGSIFKYNAMGWYRQAPGKERELVAAITWSGGSTYYADSVKGRFTISRDNAKNTVYLQMNSLKPEDTAVYYCAAVYYYASRTSKQPYYHWGQGTQVSVSS”, which “polyreactivity (PSR sort gate)” value is on record?
**A.** high polyreactivity

**Q.** With “QVQLVESGGGLVQAGGSLRLSCAPSGFTFGDYAMGWYRQSPGTESELDAAISWSGGSTYYADSVKGRFTISRDNAKTTVYLQMNSLKPEDTAVYYCAAVDSATIEDDYWGQGTQVTVSS” as the sequence, how does the “polyreactivity (PSR sort gate)” value read?
**A.** high polyreactivity

**Q.** Which “polyreactivity (PSR sort gate)” value does the source give for “QVQLVESGGGLVQAGGSLRLSCAASGLTFIRYAMGWNRQAPGKERELVASISRGGSTYYADSVKGRFTISRDNAKNTVYLQMNSLKPEDTAVYYCAAQHVGHNYYNSGFYYWGQATQVTVSS” here?
**A.** low polyreactivity

**Q.** With “QVQLVESGGGLVQAGGSLRLSCAASVRTFEPNAMGWYRQAPGKERELVAAISSSDGSTYYADSVKGRFTISRDNAKNTVYLQMNSLKPEDTAVYYCAADAGYLYDWPYNYYYWGQGTQVTVSS” as the sequence, how does the “polyreactivity (PSR sort gate)” value read?
**A.** low polyreactivity

**Q.** Which “polyreactivity (PSR sort gate)” value does the source give for “QVQLVESAAGLVQAGGSLSLSCAASGFIFWRYAMGWYRQAPGKERELVAAISVSGTRTYYADSVKGRFTISRDNAKNTVYLQMNSLKPEDTAVYYCNAASRSFSSDRAFDYWGQGTQVTVSS” here?
**A.** high polyreactivity

**Q.** With “QVQLVESGGGLVQAGGSLRLSCAASGSTFHSNAMGGYRQAPGKERELVAAISSGGSTNYADSVKGRFTISRDNAKNTVYLQMNSLKPEDTAVYYCAAVWRYLGYTAMDYWGQGTQVTVSS” as the sequence, how does the “polyreactivity (PSR sort gate)” value read?
**A.** low polyreactivity

**Q.** With “QVQLVESGGGLVQAGGSLRLSCAASGGTFGTNAMGWYRQAPGKERELVATIRTSVGSTYYADSVKGRFTISRDNAKNTVYLQMNSVKPEDTAVYYCAAGVPKNGQAGYDYWGQGTQVTVSS” as the sequence, how does the “polyreactivity (PSR sort gate)” value read?
**A.** high polyreactivity

**Q.** Which “polyreactivity (PSR sort gate)” value does the source give for “QVQLEESGGGLVQAGGSHRLSCPASGRIFRANAMGWYRQAPGKERELLAAITRSGGSTYYADSVKGRFTISRDNAKNTVYLHMISLKPEDTAVYYWNARTRFDDGYDYWGQGTQVTVSS” here?
**A.** high polyreactivity

**Q.** For “QVQREESGGGLVQAGGSLRLSCAASGNIFYQYAMGWYRLAPGKEREFVAAISISGTSTYADSVKGRFTISRDNAKNTVYLQMNSLKPVDTAVYWGQGTQVTVSS”, which “polyreactivity (PSR sort gate)” value is on record?
**A.** low polyreactivity

**Q.** Which “polyreactivity (PSR sort gate)” value does the source give for “QVQLVESGGGLVQAGGSLRLSCAASGSTFTVYAMGWYRQAPGKERELVAGISSGGSTYYADSVKGRFTISRDNAKNTVYLQMNSLKPEDTAVYYCAALRVRVPLGTYGYWGQVTQVTVSS” here?
**A.** high polyreactivity

**Q.** With “LVQVVESGGGLVQAGGSLRLSCAASGIFSRYARGWYRQAPGKERELVAAISNGGRTYYADSVKGRFTSARDNAKNTVYLQMNSLNPEDTAVYYCNKVRSPWYESWGQGTQVTVSS” as the sequence, how does the “polyreactivity (PSR sort gate)” value read?
**A.** high polyreactivity

**Q.** With “QVQLVESGGGIVQAGGSLRLSCAASGYSFFINAMGWSRQAPGKERELVAAIDLRGGSTYYADSVKGRFTISRDNAKNTVYLQMNSLKPEDTAVYYCNARARRYGGRYYYWGQGTQVTVSS” as the sequence, how does the “polyreactivity (PSR sort gate)” value read?
**A.** high polyreactivity

**Q.** With “QVQLVESGGGLVQAGGSLRLIFAASGSIFPDYAMGWYITAPGKERELVAAISRSGGRTSYADSVKGRFTISRDNAKNTVFLQMNSLKPEDTAVYYCNVASRQGSTYDYWGQGTQVTVSS” as the sequence, how does the “polyreactivity (PSR sort gate)” value read?
**A.** high polyreactivity

**Q.** For “QVQLVESGGGLVQAGGSLRLSCAASGRIIYRYAMGWYRQAPGKERELVATITWSTTSTYYADSVKGRFTISRDNAKNTVYLEMNSLKPEDTAVYYCASSIIPGFRRDPFGYWGQGTQVTVSS”, which “polyreactivity (PSR sort gate)” value is on record?
**A.** low polyreactivity

**Q.** Which “polyreactivity (PSR sort gate)” value does the source give for “QVQLVESGGGLVQAGGSLRLSCAASGSIFWTKAMGWYRQAPGKERELVARITYSGGSTYYADSVKGRFTISRDNAKNTVYLQMNSLKPEDTAVYYCNARTHGWPYSRYYYWGQGTQVTVSS” here?
**A.** high polyreactivity

**Q.** With “QVQLVETGGGIVQAGGSLRLSFAASGFTSDYNAMGWYRQAPGKERELVAAISYSGGSTYYADSVKGRFTISRDNAKNTVYLQMNSLKPEDTAVYYCANGRYGRRYYYWGQGTQVTVSS” as the sequence, how does the “polyreactivity (PSR sort gate)” value read?
**A.** high polyreactivity

**Q.** With “QVQLVDSGGGLVQAGGNLRLSCAPSGYTFGKYAMGWYRQAPGKERELVAGISSRGGSTYYADSVKGRFTISRDNAKNTVYFQMNSLKPEDTAVYYCAAVAYTGGPRKLGFYYWGQGTQVTVSS” as the sequence, how does the “polyreactivity (PSR sort gate)” value read?
**A.** high polyreactivity

**Q.** For “QVHLVESGGGLVQGGGSLRLSCAASGGTIYYYAMGWYRQAPGKERELDAANRCSGGSTYYADSVKGRFTISRDIAKNTVSLQMNSLKPEDTAVYYCPSRGGNPKGYGYLAFNYWGQGTQVTVSS”, which “polyreactivity (PSR sort gate)” value is on record?
**A.** high polyreactivity

**Q.** Which “polyreactivity (PSR sort gate)” value does the source give for “QVQLVESGGGLVQAGGSLRLSCAASGRIFANYARGWYRQAPGKERELVAAITASGGSTYYADSVKGRFTISRVNAKNTVYLQMNSLKPEDTAGYYCAKGYRLYTMYSWGQGTQVTVSS” here?
**A.** high polyreactivity

**Q.** With “QVQLVESGGGLVQAGGSLRLSCAASGSIFDWNAMGWYRQAPGKERELVAAISGTGGTKYADSVKGRFTISRDNAKNTVYLQMISLKPEDTAVYYCAVGLVPLRDGWHFYYEFDSWGQGTQVTVSS” as the sequence, how does the “polyreactivity (PSR sort gate)” value read?
**A.** low polyreactivity

**Q.** For “QVQLEESGGGLVQAGASLRLICAASGFTFARNAMGWYRQAPGKERELVASITSGGSTNYADSVKGRFTISRDNAKNTVYLQMNSLKPEETAVYYCAAYQWIAPRRDYWGQGTQVTVSS”, which “polyreactivity (PSR sort gate)” value is on record?
**A.** low polyreactivity

**Q.** Which “polyreactivity (PSR sort gate)” value does the source give for “QVQLVESGGGLVQAGGSLRLSCAASGSNFVRNTMGWYRQAPGKESELVATISSGGRTNYADSVKGRFTISRDNAKNTVYLQLNSLKPEDTAVYYCNRPRWYGGSPYYYWGQGTQVTVSS” here?
**A.** high polyreactivity

**Q.** Which “polyreactivity (PSR sort gate)” value does the source give for “QVQLVESGGGLVQAGGSLRLSCAASGSTLKYYAMGRYRQAPGKEMELVAAIRNLGGRTYYADSVKGRFTISRDNAKNTVYLQMNSLKPEDTAVYYCAAQFQSTAVGRDNYWGQGTQVTVSS” here?
**A.** high polyreactivity

**Q.** For “QVQLEETGGGLLQAGGSLRLSSAASGRTFVNYAMGWYRQAPGKEREFVAAIDRRSGSTYYADSVKGRFTISRDNAKNTVYLQMTSLKPEDTAVDYCAASPYIYDSWGQGTQVTVSS”, which “polyreactivity (PSR sort gate)” value is on record?
**A.** low polyreactivity

**Q.** For “QLQLQESGGGLVQAGGSLRLSCAESGTIFGWDRMGRYRQAPGKERELVATIDNRGSTNYADSVKGRFTISRDNAKNTLFPQMNSLKPDDTEVYYCAVVGPTPQYHLYWGEGTQVTVSS”, which “polyreactivity (PSR sort gate)” value is on record?
**A.** high polyreactivity

**Q.** For “QVQLVESGGGLLQAGGSLRLSCAASGRIFVNYAMGWYRQAPGKERELVAVISRSGGGTNYADSVKGRFTISRDNAKNTVYLQMNSLKQEDTAVYYCAADSYYYPYDYWGQGTQVTVSS”, which “polyreactivity (PSR sort gate)” value is on record?
**A.** high polyreactivity

**Q.** Which “polyreactivity (PSR sort gate)” value does the source give for “QVQLVESGGGLVQAGGSLRLSCAASGSTFAKYAMGWYRQAPGKERELVAAISLSGGSTYYADSVKGRFTISRDNAKNTVYLQMNSLKPEDTAVYYCNTPPSRYVRYGIYRYDYWGQGTQVTVSS” here?
**A.** high polyreactivity

**Q.** Which “polyreactivity (PSR sort gate)” value does the source give for “QVQLVESGGGLVQAGGSLRLSCAASGSIFFSYAMGWYRQAPGKEREFVAAINSDDASTYADSVKGRFTISRDNAKNTVYLQMNSLKPEDTAVYYCAASFLWSWYDYWGQGTQVTVSS” here?
**A.** low polyreactivity

**Q.** Which “polyreactivity (PSR sort gate)” value does the source give for “QVQLVESGGGLVQAGGSLRLSCAASGLIFGYNAMGWYRQAPGKERELVAGISSGGSTNYADSVKGRFTISRDNAKNTVYLQMNSLKPEDTAVYYCNADGYLAERFVIRLDEYRDYDYWGQGTQVTVSS” here?
**A.** low polyreactivity

**Q.** With “QVQLVESGGGLVQAGGSLRFSCAASGSTFGYYAMGWYRQAPGKEREMVAVITYSGGSTYYADSVKGRFTISRDNAKNTVYLQMNSLKPEDTAVYYCATDNYDWSSWAFRGYWYDYWGQGTQVTVSS” as the sequence, how does the “polyreactivity (PSR sort gate)” value read?
**A.** low polyreactivity
